This test addresses ubiquitin (UniProt P0CG48 1-76). The experiment in a line: NMR titration.

Broadly, the Kd is the free concentration of one partner at which half of the binding sites on the other are occupied at equilibrium, for simple one-to-one binding.

B1: Ube2S (enzyme, UniProt Q16763 1-222, looked up)
chain: MNSNVENLPPHIIRLVYKEVTTLTADPPDGIKVFPNEEDLTDLQVTIEGPEGTPYAGGLFRMKLLLGKDFPASPPKGYFLTKIFHPNVGANGEICVNVLKRDWTAELGIRHVLLTIKCLLIHPNPESALNEEAGRLLLENYEEYAARARLLTEIHGGAGGPSGRAEAGRALASGTEASSTDPGAPGGPGGAEGPMAKKHAGERDKKLAAKKKTDKKRALRRL
Take B1: the Kd turned out to be 1700 ± 80 µM.

B2: UBC-domain of Ube2S (domain or fragment)
chain: MNSNVENLPPHIIRLVYKEVTTLTADPPDGIKVFPNEEDLTDLQVTIEGPEGTPYAGGLFRMKLLLGKDFPASPPKGYFLTKIFHPNVGANGEICVNVLKRDWTAELGIRHVLLTIKCLLIHPNPESALNEEAGRLLLENYEEYAARARLLTEIHG
As for B2, the Kd came to 1110 ± 80 µM.

The values above are taken from publication PMC3072108 (Cell, 2011).
